Measured values taken from the supplement of paper PMC9170038.

How the values were obtained:
[1] = tested on: MS2 coat protein; assay: apparent KD of MS2 coat protein, switch ON state; designed switch direction (-1 OFF switch, 1 ON switch): -1; higher = weaker reporter binding; conditions: FMN input: 0 or 200 uM; Eterna round: R93 (includes R88 designs)
Procedure, shortened: (§1)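 Each design's apparent KD comes from the median of binding-curve fits to its normalised clusters. Those clusters carried RNA switches transcribed on-chip from Illumina sequencing clusters. SNAP-549-labelled MS2 coat protein was titrated onto them in twofold steps (0.7 or 1.5 nM to 3 µM; per step 0.8–1.5 h down to 10–20 min). Conditions were 100 mM Tris-HCl pH 7.5, 80 mM KCl, 4 mM MgCl2, without or with constant ligand.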

[2] = tested on: MS2 coat protein; assay: apparent KD of MS2 coat protein, switch OFF state (with FMN for OFF switches, without FMN for ON switches); designed switch direction (-1 OFF switch, 1 ON switch): -1; higher = weaker reporter binding; conditions: FMN input: 0 or 200 uM; Eterna round: R93 (includes R88 designs)
Procedure, shortened: as §1

## AACUGACAUGAGGAUCACCCAUGUCAGGAUAUGCUUCAUAAAAAAAAAAAAAAAUGAUGCAGAAGGGACAUGGA [Design 29 :P Sub-opt 5]
[1]
  apparent KD of MS2 coat protein: 20 nM
[2]
  apparent KD of MS2 coat protein: 24.5 nM

## AAAAAUUGAGGAUAUACGUACAUGUCAAAAGACGUGAAGGGACAUGAGGAUCACCCAUGUAGAAGGCGAAAGAA [JL Neck Breaker 13]
[1]
  apparent KD of MS2 coat protein: 37.1 nM
[2]
  apparent KD of MS2 coat protein: 16 nM

## AAGAAGUCAGGAUAUGGUGCUCGUCACUUGCGUGAUGAGUACCAGAAGGGACAUGAGGAUCACCCAUGUAAAGA [Opal 21]
[1]
  apparent KD of MS2 coat protein: 47.1 nM
[2]
  apparent KD of MS2 coat protein: 60 nM

## UAAAGGAUAGGAUAUACAUGAGGAUCACCCAUGUGAAUAAAUAAGAAAAUAAAAGAAAGUAGAAGGAUCAAGAA [LROPPY Exclusion 3 - v04_deltaG=3.9 break up As mixed]
[1]
  apparent KD of MS2 coat protein: 25.2 nM
[2]
  apparent KD of MS2 coat protein: 29.6 nM

## AGAAAGUGAGGAUAUUCGGAUAGGAAAACGAAAACCUAUCCGAAGAAGGCACAUGAGGAUCACCCAUGUAAAGA [Mat - Exaclusion 4 - Eli mod - D39]
[1]
  apparent KD of MS2 coat protein: 39.6 nM
[2]
  apparent KD of MS2 coat protein: 54 nM

## AAGAAGUGAGGAUAUCGAAGACAGACGAAAAGUCUGUCAAACGAGAAGGCACAUGAGGAUCACCCAUGUGGAAG [Mat - Exaclusion 4 - Eli mod - D79]
[1]
  apparent KD of MS2 coat protein: 30.6 nM
[2]
  apparent KD of MS2 coat protein: 36.8 nM

## AAGAAGGGAGGAUAUACAAAAUAAAAGAAAAGAAAGAAAGAACAUGAGGAUCACCCAUGUAGAAGGCCUAAGAA [Merneferre Ay I]
[1]
  apparent KD of MS2 coat protein: 23.8 nM
[2]
  apparent KD of MS2 coat protein: 8.74 nM

## UAAAGGAUAGGAUAUACAUGAGGAUCACCCAUGUGAAUAAAUAAAAAAAUAAAAUAAAGUAGAAGGAUCAAUAA [LROPPY Exclusion 3 - v04_deltaG=3.9 break up As]
[1]
  apparent KD of MS2 coat protein: 32.2 nM
[2]
  apparent KD of MS2 coat protein: 34 nM

## UCCUCACAUGAGGAUCACCCAUGUUAGGAUAUGCCCGGCGGGUUCUGACCUGCCUAAAGCAGAAGGAACGUGCG [Cexequge]
[1]
  apparent KD of MS2 coat protein: 16.6 nM
[2]
  apparent KD of MS2 coat protein: 70.1 nM

## AACUGACAUGAGGAUCACCCAUGUCAGGAUAUGCUUCAUAAAAAGAAACAAAAAUGAUGCAGAAGGGAUAUGGA [Design 35 :P Sub-opt 11]
[1]
  apparent KD of MS2 coat protein: 13 nM
[2]
  apparent KD of MS2 coat protein: 13.9 nM

## AAGCCACAUGAGGAUCACCCAUGUAAGGAUAUGAACGAAAUAAAAUAAAAAUAAAAGUUCAGAAGGUACAAAAA [Mat - Exclusion 1 - Eli mod - D23]
[1]
  apparent KD of MS2 coat protein: 20.2 nM
[2]
  apparent KD of MS2 coat protein: 21.9 nM

## AACUGACAUGAGGAUCACCCAUGUCAGGAUAUGACUUGACGAAAAAAAACAUGUCAUGUCAGAAGGGACAUGGA [Design 89: Sub-opt Z]
[1]
  apparent KD of MS2 coat protein: 26.4 nM
[2]
  apparent KD of MS2 coat protein: 27.6 nM

## CAGUACUGAGGAUAUACAUGAGGAUCACCCAUGUGUUCCAGCUAGGAAACUAGCAAAAGUAGAAGGCAGUACUG [Ex3: 828]
[1]
  apparent KD of MS2 coat protein: 24.6 nM
[2]
  apparent KD of MS2 coat protein: 343 nM

## AGAAAGUGAGGAUAUUCGGAUAGGAAAACGAAAACCUAUCCGAAGAAGGCACAUGAGGAUCACCCAUGUAAAAA [Mat - Exaclusion 4 - Eli mod - D38]
[1]
  apparent KD of MS2 coat protein: 33.2 nM
[2]
  apparent KD of MS2 coat protein: 37.5 nM

## AAAGAUACAGGAUAUACAUGAGGAUCACCCAUGUGAGACCAAAAAUGGGAAAAAGAAAGUAGAAGGGUAUAAAA [Ex 3 May 36]
[1]
  apparent KD of MS2 coat protein: 39.9 nM
[2]
  apparent KD of MS2 coat protein: 91.7 nM

## AAAAAACAUGAGGAUCACCCAUGUAAGGAUAUGCAAAAAAUGGGUAAAAGGGUAAAAAGCAGAAGGUACAAAAA [scarecrow1]
[1]
  apparent KD of MS2 coat protein: 156 nM
[2]
  apparent KD of MS2 coat protein: 92.1 nM

## AAAUUGUCAGGAUAUCCUAUAACUCUAAAAUAGAGGAGAUAGGAGAAGGGACAUGAGGAUCACCCAUGUAAAAC [May 86]
[1]
  apparent KD of MS2 coat protein: 43.7 nM
[2]
  apparent KD of MS2 coat protein: 61.7 nM

## AAAAGGAUAGGAUAUACAUGAGGAUCACCCAUGUGAAUAAAUAAAAUAAAUAAAUAAAGUAGAAGGGUCAAUAA [LROPPY Exclusion 3 - v05_deltaG=3.6 break up the As]
[1]
  apparent KD of MS2 coat protein: 27.8 nM
[2]
  apparent KD of MS2 coat protein: 25.4 nM

## CUCUUGUCAGGAUAUGAAAGAAAAGAAAAGAAAGAAAAGAAUCAGAAGGGACAUGAGGAUCACCCAUGUAAGAA [EteRNA is fun!]
[1]
  apparent KD of MS2 coat protein: 64 nM
[2]
  apparent KD of MS2 coat protein: 76.9 nM

## AAAAUGUGAGGAUAUGUACGAAAAAAUAAAAAAAUAAAAGUACAGAAGGCACAUGAGGAUCACCCAUGUGUGGG [EX4 400: Minimal 13]
[1]
  apparent KD of MS2 coat protein: 113 nM
[2]
  apparent KD of MS2 coat protein: 76.1 nM

## GGAACACAUGAGGAUCACCCAUGUCAGGAUAUGUAGAUAAAAAGAAAAUAAAAUAAAAACAGAAGGGACAAAAG [May 3]
[1]
  apparent KD of MS2 coat protein: 76 nM
[2]
  apparent KD of MS2 coat protein: 73.3 nM

## AAAAAGCGAGGAUAUACAUGAGGAUCACCCAUGUGAAAAAAAAAAAAAAAAAAAAAAAGUAGAAGGCGCAAAAA [GC super strong! + G boost]
[1]
  apparent KD of MS2 coat protein: 46.4 nM
[2]
  apparent KD of MS2 coat protein: 39.2 nM

## AAAAACUGAGGAUAUACUUUGGGAAAAGAAAAGAUGAUGUUACAUGAGGAUCACCCAUGUAGAAGGCAGAAAAA [Mat - Exclusion 2 - Mod - D154]
[1]
  apparent KD of MS2 coat protein: 25.4 nM
[2]
  apparent KD of MS2 coat protein: 43 nM

## AAAAAAGGAGGAUAUACGUACAUGUCAAAAGACGUGAAGGGACAUGAGGAUCACCCAUGUAGAAGGCCUAAAAA [JL Part Open 33]
[1]
  apparent KD of MS2 coat protein: 45.2 nM
[2]
  apparent KD of MS2 coat protein: 78.3 nM

## AGUCGGCGAGGAUAUACAUGAGGAUCACCCAUGUGAGAGAAUAUAGUGAGUUAGACAAGUAGAAGGCGCUGACA [JL Lego Mod 11]
[1]
  apparent KD of MS2 coat protein: 43.2 nM
[2]
  apparent KD of MS2 coat protein: 135 nM

## AAAAAACAUGAGGAUCACCCAUGUAAGGAUAUCGUGCAGAAAAAAAAAAAAAACUGCACGAGAAGGUACAAGGA [Brourd - Exclusion 1 - Sub 1]
[1]
  apparent KD of MS2 coat protein: 36.1 nM
[2]
  apparent KD of MS2 coat protein: 62.7 nM

## AAGACGUAAGGAUAUAUUAUGGGACAAUGAAGGAAGAUAAAACAUGAGGAUCACCCAUGUAGAAGGUGCAAAGA [JR_Exclusion2_Sub3]
[1]
  apparent KD of MS2 coat protein: 40.3 nM
[2]
  apparent KD of MS2 coat protein: 32.8 nM

## AAAAAGUGAGGAUAUAGCAAAGGUCACGAAAGUGACAAAGGCUAGAAGGCACAUGAGGAUCACCCAUGUAAAAA [Fiskers Exclusion 4 D2 63% 1]
[1]
  apparent KD of MS2 coat protein: 41.6 nM
[2]
  apparent KD of MS2 coat protein: 34.9 nM

## AAAAAGUGAGGAUAUACAUGAGGAUCACCCAUGUGAAGGGAAGAGAGAGAGAGAGAGAGUAGAAGGCACAAAAA [Default title]
[1]
  apparent KD of MS2 coat protein: 98.8 nM
[2]
  apparent KD of MS2 coat protein: 96.3 nM

## GGAAAGCGAGGAUAUACAUGAGGAUCACCCAUGUAAAAGAAAAGAAAAGAAAGAAAAUGUAGAAGGCGCAAAAA [Exclusion 3 plus]
[1]
  apparent KD of MS2 coat protein: 53.5 nM
[2]
  apparent KD of MS2 coat protein: 54.4 nM

## CUCUUGUCAGGAUAUCGAUGAAUAAUAAAACAGAGGAACAUUGAGAAGGGACAUGAGGAUCACCCAUGUAAAAC [May 83]
[1]
  apparent KD of MS2 coat protein: 73.1 nM
[2]
  apparent KD of MS2 coat protein: 48.9 nM

## AAAAAGGUAGGAUAUGCUAAAUAACAUGUUGAAUAAAUAAAACAUGAGGAUCACCCAUGUAGAAGGACCAAAAA [Ex 2 Tesla 2]
[1]
  apparent KD of MS2 coat protein: 54 nM
[2]
  apparent KD of MS2 coat protein: 58.1 nM

## AAAAAACAUGAGGAUCACCCAUGUGAGGAUAUGAAAAUACUAAGACAACAGUAAUCAAUCAGAAGGCACAACAA [JR_Exc--1_Sub1209]
[1]
  apparent KD of MS2 coat protein: 20.1 nM
[2]
  apparent KD of MS2 coat protein: 25.8 nM
